According to patent US20230167185A1 (STRIKE PHARMA, published 2023):

T1: caCD40-Fc (Sino Biological #70105-D02H) (canine, UniProt Q7YRL5 21-194)
T1 construct: also called Canine CD40-Fc; canine CD40; not shown: Fc part of the bought fusion
T1 sequence (looked up): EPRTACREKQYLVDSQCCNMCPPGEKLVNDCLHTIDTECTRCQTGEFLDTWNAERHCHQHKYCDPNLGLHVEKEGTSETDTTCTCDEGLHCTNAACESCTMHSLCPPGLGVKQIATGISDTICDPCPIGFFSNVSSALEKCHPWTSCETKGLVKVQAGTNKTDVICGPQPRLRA


Tests used:
[1] = molecular target: T2, Biotinylated human CD40 (AcroBiosystems #CD0-H82E8) (human, UniProt P25942 21-193); experiment: SPR, captured IgG2, SCK, 1:1 model
T2 construct: also called hCD40-avi; Human CD40-avi; not shown: C-terminal Avi-tag
T2 sequence (P25942 21-193): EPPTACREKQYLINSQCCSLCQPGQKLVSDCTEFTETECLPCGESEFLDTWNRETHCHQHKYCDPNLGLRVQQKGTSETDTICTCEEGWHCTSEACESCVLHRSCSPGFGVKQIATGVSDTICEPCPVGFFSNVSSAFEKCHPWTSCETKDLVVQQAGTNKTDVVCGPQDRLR

[2] = molecular target: T3, Human CD40 Fc chimera (R&D Systems #1493-CDB) (human, UniProt P25942 21-193); experiment: SPR, captured IgG2, SCK, 1:1 model; apparent KD (appKD), dimeric antigen
T3 construct: also called hCD40-Fc
T3 sequence (P25942 21-193, stated change not applied): as the sequence (P25942 21-193) above

[3] = molecular target: T4, Cynomolgus CD40 Fc chimera (R&D Systems #9660-CD) (cynomolgus, UniProt G7PG38 21-193); experiment: as above
T4 construct: range 21-193; also called cCD40-Fc
T4 sequence (G7PG38 entry or part of it mutant): as the sequence (P25942 21-193) above, with G43S, H56R, R70Q, W89L, A95S, L101P, S106L, H142R, L172Q counted along it

[4] = molecular target: T1, caCD40-Fc (Sino Biological #70105-D02H); experiment: SPR, captured IgG2, caCD40-Fc 0.16-100 nM, SCK
[5] = molecular target: T5, Mouse CD40 (AcroBiosystems #TN5-M52H8) (mouse, UniProt P27512 24-193); experiment: SPR, captured IgG2, single injection of mCD40
T5 construct: range 24-193; also called mCD40
T5 sequence (P27512 24-193 limits assumed): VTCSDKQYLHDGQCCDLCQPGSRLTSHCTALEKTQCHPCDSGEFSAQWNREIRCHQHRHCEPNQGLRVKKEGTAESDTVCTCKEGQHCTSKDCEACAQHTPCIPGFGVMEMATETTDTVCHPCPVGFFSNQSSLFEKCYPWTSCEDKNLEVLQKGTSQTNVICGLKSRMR

[6] = molecular target: T3, Human CD40 Fc chimera (R&D Systems …); experiment: SPR, captured IgG2, SCK, 1:1 model, dimeric antigen
[7] = molecular target: T4, Cynomolgus CD40 Fc chimera (R&D Systems …); experiment: as above
[8] = molecular target: human CD40 on cells (CD19+ cells of PBMC; monocyte-derived dendritic cells) (human, UniProt P25942 21-277); experiment: cell-based or functional assay
Sequence of human CD40 on cells (CD19+ cells of PBMC; monocyte-derived dendritic cells) (P25942 21-277 limits assumed): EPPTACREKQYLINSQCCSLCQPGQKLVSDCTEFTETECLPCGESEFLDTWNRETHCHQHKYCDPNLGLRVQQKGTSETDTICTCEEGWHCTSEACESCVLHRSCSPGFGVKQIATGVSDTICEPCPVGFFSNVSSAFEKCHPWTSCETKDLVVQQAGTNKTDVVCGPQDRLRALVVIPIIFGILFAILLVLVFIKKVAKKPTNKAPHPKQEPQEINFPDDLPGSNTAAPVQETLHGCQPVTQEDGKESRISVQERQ

Row | Binder | Kd [1] [nM] | koff [1] [s⁻¹] | kon [1] [M⁻¹ s⁻¹] | Kd [2] [nM] | Kd [3] [nM] | binding result [4] | binding result [5] | koff [6] [s⁻¹] | kon [6] [M⁻¹ s⁻¹] | koff [7] [s⁻¹] | kon [7] [M⁻¹ s⁻¹] | agonistic activity relative to the parental antibody SP9 (A9) (IL-12 production by MoDCs) [8] [%]
1 | Y-SM083-A9 (antibody, human IgG2, kappa, V domains shown, also called A9 antibody; SP9) VH: EVQLLESGGGLVQPGGSLRLSCAASGFTFSSYAMSWVRQAPGKGLEWVSGISGYSGSTYYADSVKGRFTISRDNSKNTLYLQMNSLRAEDTAVYYCARYYSYYGYYYFDYWGQGTLVTVSS VL: DIQMTQSPSSLSASVGDRVTITCRASQSISSYLNWYQQKPGKAPKLLIYAASSLQSGVPSRFSGSGSGTDFTLTISSLQPEDFATYYCQQGYPYPFTFGQGTKLEIKR | 37 | 0.0061 | 170000 | 5.1 | 4.5 | no binding (tested: 100 nM) | no binding (tested: 80 nM) | 0.0016 | 310000 | 0.0022 | 500000 | –
2 | X-SM083-bi-23 (bispecific antibody, human IgG2, kappa) heavy: EVQLLESGGGLVQPGGSLRLSCAASGFTFSSYAMSWVRQAPGKGLEWVSGISGYSGSTYYADSVKGRFTISRDNSKNTLYLQMNSLRAEDTAVYYCARYYSYYGYYYFDYWGQGTLVTVSSASTKGPSVFPLAPCSRSTSESTAALGCLVKDYFPEPVTVSWNSGALTSGVHTFPAVLQSSGLYSLSSVVTVPSSNFGTQTYTCNVDHKPSNTKVDKTVERKCCVECPPCPAPPVAGPSVFLFPPKPKDTLMISRTPEVTCVVVDVSHEDPEVQFNWYVDGVEVHNAKTKPREEQFNSTFRVVSVLTVVHQDWLNGKEYKCKVSNKGLPAPIEKTISKTKGQPREPQVYTLPPSREEMTKNQVSLTCLVKGFYPSDIAVEWESNGQPENNYKTTPPMLDSDGSFFLYSKLTVDKSRWQQGNVFSCSVMHEALHNHYTQKSLSLSPGKGGGGSGGGGSEVQLLESGGGLVQPGGSLRLSCAASGFTFSNYWMSWVRQAPGKGLEWVSGISGNGGYTYFADSVKDRFTISRDNSKNTLYLQMNSLRAEDTAVYYCAGGDGSGWSFWGQGTLVTVSSGGGGSGGGGSGGGGSGGGGSQSVLTQPPSASGTPGQRVTISCTGSSSNIGAGYDVHWYQQLPGTAPKLLIYGNNNRPSGVPDRFSGSKSGTSASLAISGLRSEDEADYYCAAWDDSLSGRVFGGGTKLTVL light: not shown | – | – | – | – | – | – | – | – | – | – | – | 92
3 | Y-SM083-B8 (antibody, V domains shown) VH: not shown VL: DIQMTQSPSSLSASVGDRVTITCRASQSISSYLNWYQQKPGKAPKLLIYAASSLQSGVPSRFSGSGSGTDFTLTISSLQPEDFATYYCQQGYGYPPFTFGQGTKLEIK | 15 | – | – | 13 | 13 | – | no binding (tested: 80 nM) | 0.0015 | 120000 | – | – | –
